Ends that are not written are not given here. * marks the point of attachment. LacNAc = N-acetyllactosamine (disaccharide N-linked to the Asn side chain), CC(=O)N[C@@H]1[C@@H](O)[C@H](O[C@@H]2O[C@H](CO)[C@H](O)[C@H](O)[C@H]2O)[C@@H](CO)O[C@H]1*; βGlcNAc = CC(=O)N[C@@H]1[C@@H](O)[C@H](O)[C@@H](CO)O[C@H]1*
T1: Q11
T1 peptide: Ac-QQKFQFQFEQQ-NH2


Key:
[1] = target: the molecule itself; assay: circular dichroism + transmission electron microscopy
Q11 = target: T1, Q11; assay: co-sedimentation

binding result (Q11)	Binder	binding result [1]
–	N(LacNAc)SGSGQQKFQFQFEQQ-NH2 [LacNAc-Q11]	binds
binds	N(βGlcNAc)SGSGQQKFQFQFEQQ-NH2 [GlcNAc-Q11]	binds
